PMC5566100

B1: DNA aptamer-20 (structured_DNA)
DNA: GGGCGCGTAGATGACGAGCAGTCCTAACATCGTTTAGGAC
B2: RNA aptamer-20 (structured_RNA)
RNA: GGGCGCGUAGAUGACGAGCAGUCCUAACAUCGUUUAGGAC

Biological target: IGFIIR extracellular domain (domains 10-14; M6PR) (human, UniProt P11717 1510-2108)
Test: SPR

IGFIIR extracellular domain (domains 10-14; M6PR), sequence (P11717 1510-2108): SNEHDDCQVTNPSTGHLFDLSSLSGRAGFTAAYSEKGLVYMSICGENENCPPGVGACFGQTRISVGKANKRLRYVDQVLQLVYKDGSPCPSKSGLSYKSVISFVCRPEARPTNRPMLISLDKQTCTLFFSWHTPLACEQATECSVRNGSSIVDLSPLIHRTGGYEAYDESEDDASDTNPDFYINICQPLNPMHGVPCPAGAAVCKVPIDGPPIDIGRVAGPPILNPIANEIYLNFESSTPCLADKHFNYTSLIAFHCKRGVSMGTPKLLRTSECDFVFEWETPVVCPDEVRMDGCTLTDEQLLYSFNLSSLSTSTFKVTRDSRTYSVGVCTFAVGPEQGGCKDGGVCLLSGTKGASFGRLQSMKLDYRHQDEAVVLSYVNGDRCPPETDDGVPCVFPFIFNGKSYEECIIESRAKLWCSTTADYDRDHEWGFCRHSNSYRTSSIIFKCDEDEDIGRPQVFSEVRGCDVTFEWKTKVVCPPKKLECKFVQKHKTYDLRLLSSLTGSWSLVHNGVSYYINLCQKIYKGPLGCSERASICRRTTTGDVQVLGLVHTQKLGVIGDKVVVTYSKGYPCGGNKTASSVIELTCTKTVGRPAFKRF

Row | Binder | Kd [nM]
1 | B1 | 35.5
2 | B2 | 20
